From the RNAGym collection of RNA variant scans (doi:10.1073/pnas.2313332121)
This sample holds only a part of the variants without activity.

B1: TPR 5TU (parent)
chain: GGAUCUUCUCGAUCUAACAAAAAAGACAAAUCUGCCACAAAGCUUGAGAGCAUCUUCGGAUGCAGAGGCGGCAGCCUUCGGUGGCGCGAUAGCGCCAACGUUCUCAACUAUGACACGCAAAACGCGUGCUCCGUUGAAUGGAGUUUAUCAUG

Variants of: B1
Assay: polymerase ribozyme fitness, log enrichment relative to wild type (log ratio); higher = more active; in vitro selection for triplet polymerase activity
Summary of the method: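 Both subunits of a heterodimeric triplet polymerase ribozyme were given their own mutant library, built by PCR and transcribed. Each library was annealed with a biotinylated primer, the partner subunit and triplets, incubated frozen at −7 °C, and its extended constructs gel-excised, captured on streptavidin beads and amplified by RT-PCR, all in one round done in triplicate. Fitness is the logarithm of genotype enrichment relative to wild-type enrichment, with replicates averaged by inverse-variance weighting. That logarithm is base 2, and Illumina-sequenced genotypes needed ≥10 input reads and ≥1 read per output.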

Variant | polymerase ribozyme fitness (log ratio)
G59A A73G U90C C93G C131U U144G | ≤ -4.2
G58C A60G | 0.746
G59C G92A | -2.89
G58A C85U A115U U144G | -1.46
G58A G83A A147C | -0.252
G58C G83C G117C | -0.409
G58C U61A G74U U77G C79U G80C C87A | ≤ -4.2
G59A G94A A150C | ≤ -4.2
G58U U82A G84U U146G | -2.04
G59C G81U G83A G124A G141U | 0.692
G59A C76A C85A G117A A122C | -2.85
G58A G83A G140U | -3.64
G58U G59A | 0.429
G59C G71A A115G | -4.09
G59A G84U A98G A115U | -3.58
G59A G124U C125G G136U U139A U146A | ≤ -4.2
G58U C123U | 0.837
G58A A142U | -0.199
G58C A97G A98U U145C | -0.616
G59C C99G G141U | -1.13
G58A A64G A91C A147U | ≤ -4.2
G58U U61G C63U G74C G141C | ≤ -4.2
G58A C85A | -1.11
G58U G152U | -2.71

Variant | polymerase ribozyme fitness (log ratio)
G59C G74A G80C U127G A142G | ≤ -4.2
G59A C79U | -3.86
G59C U61A | -1.51
G59C G86C C118A | -2.85
G58U C72U C87U C99G G141C | ≤ -4.2
G58A G80U G84A G88A | ≤ -4.2
G59A U78C G88U C96U U109G G140C | ≤ -4.2
G58C C72U U101G | 0.371
G59C A98U C125A G140C | ≤ -4.2
G58C C96U A98G A121G | -0.614
G59C A64U C75U C132U | ≤ -4.2
G59C C95A C99G | ≤ -4.2
G59A C85U U102G A106C G141A | ≤ -4.2
G58U G86C | -1.98
G59A C149A | -3.65
G58C G84A G112U | ≤ -4.2
G58C U144C | 0.128
G58U G88C U130G | ≤ -4.2
C57U G94A | -0.629
C57U G94U | -0.85
C57U U130G C131U | -4.19
G58A C103A | -1.19
G58U C75A U90A | ≤ -4.2
G58C C63G C96G | -0.61

Variant | polymerase ribozyme fitness (log ratio)
G58C A89G | -0.995
G58C G80C C95U | ≤ -4.2
G59A C76G C93G | ≤ -4.2
G58A C75U C96G | 0.314
G59C A89C C93U G117C A120G U135A | -3.35
G58U U135C | -1.62
G59A C87U A121U | -0.901
G58A C93U | -2
G58A U135C | -1.39
G58U G128U | -3.02
C57U U151A | -4.18
G58A G80C | ≤ -4.2
G58C | 0.0074
G58U | -0.0298
G58A | 0.338
G59C C85G C95U C116A | -2.38
G59A A115G G140A | ≤ -4.2
G58C U82G C99G | -1.45
G59A C69A G86U A89C C95G | ≤ -4.2
G58C U82G C132A | -2.83
G59C C93U C116U U135G | -3.78
G58A A98G G100A U104G A113G A119U A120U A122U U145C | ≤ -4.2
G59C C76A C87U A147C | -2.29
G58U A97G A98G G117U U146G | -0.542

Variant | polymerase ribozyme fitness (log ratio)
G58U C96A G126C | 0.641
G58C C79G A107U U134A U139C | ≤ -4.2
G58A A73C | -1.62
G59A A60C | -1.48
G59A A60G | -0.0653
G58U C132G | -2.82
G58A C72U C76A | -1.3
G58C G84U G136U | -3.72
G58U A142C | -0.408
G59A G84U G92C C95G G124C | -2.69
G58A A73G C116U | 0.431
G59A G74A | -3.23
C57U U135G | -4.05
G58A A91C | ≤ -4.2
G59C G83A C87A A137U G140U | ≤ -4.2
C57U U61A A89U A106G A122G A150G | -3.73
G58U C69G C87G | ≤ -4.2
G58A U61A G88C G133U | ≤ -4.2
G58C C63U C95G | -2.14
G59A C75G G94U C95U | -3.76
G59A C85U | -1.79
G59C G80A C93A | -3.86
G59A C85G G126U | -2.21
G58A C75U C118G | -0.168

Variant | polymerase ribozyme fitness (log ratio)
G58C C85A A110C U111G | ≤ -4.2
G58U U78G C79U G80A C85U C96U A106G A147C | ≤ -4.2
G59C C95U | 0.0454
G59C C95A | -0.188
G59A C87G G140C | ≤ -4.2
G58A G133A | -4
G59A C125A | 0.12
G58C G83C G117C C131U | -0.976
G58A A121C | 0.557
G58C A91C C125G | ≤ -4.2
G59C A89U G92C A121G | -2.45
G58C U135G | -3.82
G59C C95U A110G C116A | -3.2
C57U U102A C103U | -1.15
G59C G86A | -2.61
G58A G100U | -3.22
G58C G86U U104G | -1.93
G59C A97U | -0.431
G58A A97U A107U | -4.18
G58U G86A U130C | 0.803
G59C G100A A115C U144C | ≤ -4.2
G58C G140A | -3.51
G58C A66C C87G U139A | ≤ -4.2
G59C A147C | -0.516

Variant | polymerase ribozyme fitness (log ratio)
G58C A115U U127C U144G | 0.143
G58A C75U A91G C95G | ≤ -4.2
G58A U82A A89U A119G A120U G126U | -0.897
G58C U111G C116A A137C | ≤ -4.2
G58C C93U | -1.71
G58A U146G | 0.231
G59C G94C A119C U146G | -1.61
C57U G92C A97C U145A | 0.369
G59A G136C | -2.89
G58C C63U A120C | -0.534
G58C G59C C96U C131A | -4.15
G58U U82A G84U | -0.648
G59C C96U U146A | 0.268
G58C C79U C85G G141U | ≤ -4.2
G59C A120U A122C A147G | -1.22
G58C C72U A150U | 0.398
G58C C63U U102G A106U G126A C132A | ≤ -4.2
G58C C96G | -1.88
G59A A119U | -0.778
G58A G83U | 0.174
G58A U102G A121U | -2.85
G59A U82C U134A | -2.59
G59C C79U | -3.43
G58A C85G C118A G126C | -3.62

Variant | polymerase ribozyme fitness (log ratio)
G58U A137C | -3.03
G58C U78G C85G A106U A113G U144C | ≤ -4.2
G58C G68A G94U C96G | ≤ -4.2
G59C G84A | -0.218
G58A C96A A97G A106C A119U | -1.42
G59C U61G G84A C95G A120C G143U | -4.18
G59C U127G U130C | ≤ -4.2
G58A G88U C96U C118A C125A G133A | ≤ -4.2
G59A C85U U134A | -3.92
G59C G68C G70U G140U | ≤ -4.2
G59A C118G U130A C132G G140A | ≤ -4.2
G59C A97U U139G | -0.518
G58U C63G A142C | -1.41
G59C U78G G81C | -4.11
G59C A60G C69U | -2.47
G58A G81A | -0.536
G59A G92U C114A A119U | -3.59
G58A C75G C125G C129A U151G | ≤ -4.2
G59A C87U U101G G136C | -2.91
G58C C87A | ≤ -4.2
G58C C87U | -1.59
G58C U102A C114A | -4.12
G58C G152A | -2.01
